molecular target: T1, biotinylated nerve growth factor (NGF) (Homo sapiens, UniProt P01138, biotin (biotinylated in-house, sites not stated)); test: AlphaScreen or HTRF; epitope competition assay: biotinylated NGF (detected by streptavidin Europium cryptate) and DyLight650-labelled IgGWFL with increasing concentrations of test IgG; relative affinity; settings: both partners purified
T1 construct: nerve growth factor (NGF), human; R&D Systems 256-GF; also called human nerve growth factor; source: bought: R&D Systems (256-GF), biotinylated in-house
T1 sequence (P01138 122-241): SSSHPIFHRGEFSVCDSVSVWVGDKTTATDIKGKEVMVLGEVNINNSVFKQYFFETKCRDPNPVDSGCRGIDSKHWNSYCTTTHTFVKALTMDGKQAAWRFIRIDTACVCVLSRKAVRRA

Binder | binding result
evolved scFvWFL variant 37 reformatted as IgG1 (antibody, V domains shown, retains W35, F36 and L64; human IgG1 heavy chain constant region of the TM-YTE IgG1 expression vector; human light chain constant region of the expression vector; IgG1, TM-YTE backbone; retains the original WFL residues (W35, F36 and L64); source: HEK293/EBNA, co-transfected, purified from the culture medium (Protein A)) VH: QVQLVPSGAEVKKPGSSVKVSCKASGGTFWFGAFTWVRQAPGQGLEWMGGIIPTFGLTNLAQNFQGRVTITADESTSTVYMELSSLRSEDTAVYYCARSSRIYDLNPSLTAYYDMDVWGQGTMVTVSS VL: QSVLTQPPSVSAAPGQKVTISCSGPSSDIGNNYVSWYQQLPGTAPKLLIYDNNKRPSGIPDRFSGSKSGTSATLGITGLQTGDEADYYCGTWDSSLSAWVFGGGTKLTVL | binds
evolved scFvWFL variant 16 reformatted as IgG1 (antibody, V domains shown, human IgG1 heavy chain constant region of the TM-YTE IgG1 expression vector; human light chain constant region of the expression vector; IgG1, TM-YTE backbone; selected by the TPBLA from an error-prone PCR library of scFvWFL; source: HEK293/EBNA, co-transfected, purified from the culture medium (Protein A)) VH: QVQLVQSGAEVKKPGSSVKVSCKASGGTFWSGAFTWVRQAPGQGLEWMGGIIPISGLTNLAQNFQGRVTITADESTSTAYMELSSLRSEDTAVYYCARSSRIYDLNPSLTAYYDMDVWGQGTMVTVSS VL: QSVLTQPPSVSAAPGQKVTISCSGSSSDIGNNYVSWYQQLPGTAPKLLIYDNNKRPSGIPDRFSGSKSGTSATLGITGLQTGDEADYYCGTWDSSLSAWVIGGGTKLTVL | binds
evolved scFvWFL variant 72 reformatted as IgG1 (antibody, V domains shown, human IgG1 heavy chain constant region of the TM-YTE IgG1 expression vector; human light chain constant region of the expression vector; IgG1, TM-YTE backbone; selected by the TPBLA from an error-prone PCR library of scFvWFL; source: HEK293/EBNA, co-transfected, purified from the culture medium (Protein A)) VH: QVQLVQSGAEVKKPGSSVKVSCKASGGTSWFGAFTWVRQAPGQGLEWMGGTIPIFGLTNLAQNFQGRVTITADESTSTVYMELSSLRSDDTAVYYCARSSRIYDLNPSLTAYYDMGVWGQGTMVTVSS VL: QSVLTQPPSVSAAPGQKVTISCSGSSSDIGDNYVSWYQQLPGTAPKLLIYDNNKRPSGIPDRFSGSKSGTSATLGITGLQTGDEADYYCGTWDSSLSAWVFGGGTKLTVL | binds
MEDI578 (the parent antibody prior to affinity maturation into MEDI1912) (antibody, V domains shown, VH of MEDI578; VL of MEDI578; The entry is printed as 5J7Z in the methods; also called IgG_(MEDI578)) VH: QVQLVQSGAEVKKPGSSVKVSCKASGGTFSTYGISWVRQAPGQGLEWMGGIIPIFDTGNSAQSFQGRVTITADESTSTAYMELSSLRSEDTAVYYCARSSRIYDLNPSLTAYYDMDVWGQGTMVTVSS VL: QSVLTQPPSVSAAPGQKVTISCSGSSSNIGNNYVSWYQQLPGTAPKLLIYDNNKRPSGIPDRFSGSKSGTSATLGITGLQTGDEADYYCGTWDSSLSAWVFGGGTKLTVL | binds
evolved scFvWFL variant 176 reformatted as IgG1 (antibody, V domains shown, human IgG1 heavy chain constant region of the TM-YTE IgG1 expression vector; human light chain constant region of the expression vector; IgG1, TM-YTE backbone; selected by the TPBLA from an error-prone PCR library of scFvWFL; source: HEK293/EBNA, co-transfected, purified from the culture medium (Protein A)) VH: QVQLVRSGAEVKKPGSSVKVSCKASGGTFWFGAFTWVRQAPGQGLEWMGGIIPIFGLTNLAQNFQGRVTITADESTSTVYMELSSLRSEDTAVYYCARSSRIYDLNPSLTAYYDMDVWGQGTMVTVSS VL: QSVLTQPPSVSAAPGQKVTISCSGSSSDIGNNYVSWYQQLPGTAPKLLIYDNNKRPSGIPDRFSGSKSGTSATLGITGLQTGDEADYYCGTWDSSLSAWVFGGGTKLTVL | binds
DyLight650-labelled IgGWFL (antibody, V domains shown, as the VH of m1; human IgG1 heavy chain constant region of the TM-YTE IgG1 expression vector; as the VL of m1; human light chain constant region of the expression vector; same protein as m1; also called labelled MEDI1912; source: HEK293/EBNA, co-transfected, purified from the culture medium (Protein A); labelled with DyLight650) VH: QVQLVQSGAEVKKPGSSVKVSCKASGGTFWFGAFTWVRQAPGQGLEWMGGIIPIFGLTNLAQNFQGRVTITADESTSTVYMELSSLRSEDTAVYYCARSSRIYDLNPSLTAYYDMDVWGQGTMVTVSS VL: QSVLTQPPSVSAAPGQKVTISCSGSSSDIGNNYVSWYQQLPGTAPKLLIYDNNKRPSGIPDRFSGSKSGTSATLGITGLQTGDEADYYCGTWDSSLSAWVFGGGTKLTVL | binds
evolved scFvWFL variant 126 reformatted as IgG1 (antibody, V domains shown, human IgG1 heavy chain constant region of the TM-YTE IgG1 expression vector; human light chain constant region of the expression vector; IgG1, TM-YTE backbone; selected by the TPBLA from an error-prone PCR library of scFvWFL; source: HEK293/EBNA, co-transfected, purified from the culture medium (Protein A)) VH: QVQLVQSGAEVKKPGSSVKVSCKASGGTFWFGAFTWVRQAPGQGLEWMGGFIPISGLTNLAQNFQGRVTITADESTSTVYMELSSLRSEDTAVYYCARSSRIYDLNPSLTAYYDMDVWGQGTMVTVSS VL: QSVLTQPPSVSAAPGQKVTISCSGSSSDIGNNYVSWYQQLPGTAPKLLIYDNNKRPSGIPDRFSGSKSGTSATLGITGLQTGDEADYYCGTWDSSLSAWVFGGGTKLTVL | binds
evolved scFvWFL variant 11 reformatted as IgG1 (antibody, V domains shown, human IgG1 heavy chain constant region of the TM-YTE IgG1 expression vector; human light chain constant region of the expression vector; IgG1, TM-YTE backbone; selected by the TPBLA from an error-prone PCR library of scFvWFL; source: HEK293/EBNA, co-transfected, purified from the culture medium (Protein A)) VH: QVQLVRSGAEVKKPGSSVKVSCKASGGTFWFGAFTWVRQAPGQGLEWMGGIIPIFGLTNLAQNFQGRVTITADESTSTVYMELSSLRSEDTAVYYCARSSRIYDLNPSLAAYYDMDVWGQGTMVTVSS VL: QSVLTQPPSVSAAPGQKVTIPCSGSSSDIGNNYVSWYQQLPGTAPKLLIYDNNKRPSGIPDRFSGSKSGTSATLGVTGLQTGDEADYYCGTWDSSLSAWVFGGGTKLTVL | binds
evolved scFvWFL variant 130 reformatted as IgG1 (antibody, V domains shown, human IgG1 heavy chain constant region of the TM-YTE IgG1 expression vector; human light chain constant region of the expression vector; IgG1, TM-YTE backbone; selected by the TPBLA from an error-prone PCR library of scFvWFL; source: HEK293/EBNA, co-transfected, purified from the culture medium (Protein A)) VH: QVQLVQSGAEVKKPGSSVKVSCKASGGAFWFGAFTWVRQAPGQGLEWMGGITPIFGHTNLAQNFQGRVTITADESTSTVYMELSSLRSEDTAVYYCARSSRIYDLNPSLTAYYDMDVWGQGTMVTVSS VL: QSVLTQPPSVSAAPGQKVTISCSGSSSDIGNNYVSWYQQLPGTAPKLLIYDNNKRPSGIPDRFSGSKSGTSATLGITGLQTGDEADYYCGTWDSSLSAWVFGGGTKLTVL | binds

Second part, the binder after the results:

binding result | Binder
binds | evolved scFvWFL variant 128 reformatted as IgG1 (antibody, V domains shown, retains W35, F36 and L64; human IgG1 heavy chain constant region of the TM-YTE IgG1 expression vector; human light chain constant region of the expression vector; IgG1, TM-YTE backbone; retains the original WFL residues (W35, F36 and L64); source: HEK293/EBNA, co-transfected, purified from the culture medium (Protein A)) VH: QVQLVQSGAEVKKPGSSVKVSCKASGGTFWFGAFTWVRQAPGQGLEWMGGIIPIFGLTNLAQNFQGRVTITADESTSTVYMELSSLRSEDTAVYYCARSSRIYDLNPSLTADYDMDVWGQGTMVTVSS VL: QSVLTQPPSVSAAPGQEVTISCSGSSSDIGNNYVSWYQQPPGAAPKLLIYDNNKRPSGIPDRFSGSKSGTSATLGITGLQTGDEADYYCGTWDSSLSAWVFGGGTKLTVL
binds | evolved scFvWFL variant 139 reformatted as IgG1 (antibody, V domains shown, human IgG1 heavy chain constant region of the TM-YTE IgG1 expression vector; human light chain constant region of the expression vector; IgG1, TM-YTE backbone; the best performing variant of the screen; source: HEK293/EBNA, co-transfected, purified from the culture medium (Protein A)) VH: QVQLVQSGAEVKKPGSSVKVSCKAGGGTFWSGAFTWVRQAPGQGLEWMGGIIPIFGLTNLAQNFQGRVTITADESTSTVYMELSSLRSEDTAVYYCARSSRTYDLNPSLTAYYDMDVWGQGTMVTVSS VL: QSVLTQPPSVSAAPGQKVTISCSGSSSDIGNNYVSWYQQLPGTAPKLLIYDNNKRPSGIPDRFSGSKSGTTATLGITGLQTGDEADYYCGTWDSSLSAWVFGGGTKLTVL
binds | evolved scFvWFL variant 59 reformatted as IgG1 (antibody, V domains shown, human IgG1 heavy chain constant region of the TM-YTE IgG1 expression vector; human light chain constant region of the expression vector; IgG1, TM-YTE backbone; selected by the TPBLA from an error-prone PCR library of scFvWFL; source: HEK293/EBNA, co-transfected, purified from the culture medium (Protein A)) VH: QVQLVQSGAEVKKPGSSVKVSCKASGGTFRFGAFTWARQAPGQGLEWMGGIIPIFGLTNLAQNFQGRATITADESTSTVYMELSSLRSEDTAVYYCARSSRIYDLNPSLTAYYDMDVWGQGTMVTVSS VL: QSVLTQPPSVSAAPGQKVTISCSGSSSDIGNNYVSWYQQLPGTAPKLLTYDNNKRPSGIPGRFSGSKSGTSATLGITGLQTGDEADYYCGTWDSSLSAWVFGGGTKLTVL

molecular target: T1, biotinylated nerve growth factor (NGF); test: not given; settings: not given

binding result | Binder
binds | IgG STT (scFv STT) (antibody, V domains shown) VH: QVQLVQSGAEVKKPGSSVKVSCKASGGTFSTGAFTWVRQAPGQGLEWMGGIIPIFGLTNLAQNFQGRVTITADESTSTVYMELSSLRSEDTAVYYCARSSRIYDLNPSLTAYYDMDVWGQGTMVTVSS VL: QSVLTQPPSVSAAPGQKVTISCSGSSSDIGNNYVSWYQQLPGTAPKLLIYDNNKRPSGIPDRFSGSKSGTSATLGITGLQTGDEADYYCGTWDSSLSAWVFGGGTKLTVL
